Measured values: patent publication US20230066984A1, “New Carbon Glycoside Glycosyltransferase and Use Thereof” (CAS Center for Excellence in Molecular Plant Sciences, priority 2020, published 2023)

B1: TaCGT1-D: C-glycosyltransferase from wheat, SEQ ID NO: 10 (protein, listed as Triticum aestivum)
chain: MPTSGDASGALPHPHVVLLPSAGMGHLVPFSRLAVSLSSPGHGCGVSVATVLPTVSSAESAHLDALFGACPAVRRLDFHLAPFDASEFPGADPFFLRFEAMRRSAPLLGPLLAGAGASALVTDIALASVVIPVARDLRLPCYVLFTASAAMLSLCVHFPAYLDANAGGPVGDVGIPGVYRVPKASIPQALHHPEHLFTQQFVANGRELAKADGLLVNSFDAFEPEAIAALRNGSVAAGFPPVFSVGPLAPVSFSASEPPENQADYMRWLEAQPARSVVYVSFGSRKAISKDQLRELAVGLEASGHRFLWVVKSTVVDRDDEAELSELLGEGFLERVQGRGMVTKGWVEQEEVLKQESIGLFISHCGWNSVTEAAANGLPVLAWPRFGDQRVNAGVVARSGLGVWEERWSWEGEEGTVSGHNIAEKVKTVMADKTVRNKAVSVQDAAAEAVADGGTSYRSLAQFVQRCRDLSVSK
B2: TaCGT2-A: C-glycosyltransferase from wheat, SEQ ID NO: 11 (protein, listed as Triticum aestivum)
chain: MASSSRDDRAGAAAPRPRIVLLPSAGMGHLAPFSRLAAALSSGHACDVSLVTVLPTVSSAESGQLDALFAAFPAVRRLDFHLPPLDAPELSGADPFYVHYEATRRSARLLAPLLAAADASALIADISLASVLIPVASELRLPCYVFFTASATMFSFYAYYPTYLDATGAGDADVPGVYRIPKSSFPQALHDRNNLFTQQFVANGRSLSKADGLLINTFDDLEPEAVTALRQGSVVPGFPPVFTVGPLSPVSFPARASSDYSAWLDAQPERSVVYVSFGSRKALARDQLSELADGLEASGCRFLWVVKGAVVDKDDGAELSELLGEGFLQRVSGRALVTKAWVEQGEVLKHPAIGMFVSHCGWNSLTEAFATGVPVLAWPRFADQRVNAGIVARCGAGVWVERWSWEGDDGVVKGEEIAEKVKSVMADEMLRRSSTVVREAATTAVAGGGTSYRSLAELVARCCHGSALQ
B3: TaCGT2-B: C-glycosyltransferase from wheat, SEQ ID NO: 12 (protein, listed as Triticum aestivum)
chain: MASSPRDDRAGAAAPRPRIVLLPSASMGHLAPFSRLAAALSSGHACDVSLVTVLPTVSSAESGQLDALFAAFPAVRRLDFQLPPLDAPELSGADPFYVHYEATRRSARLLAPLLAAADASVLVADISLASVLIPVASELRLPCYVFFTASATMFSFYAYYPTYLDAAGAGDADVPGVYRIPKSSFPQALHDRNNLFTQQFVANGRSLSKADGLLINTFDALEPEAVTALRQGSVVPGCPPVFTVGPLSPVSFPARASADYSACLDAQPERSVVYVSFGSRKALARDQLSELADGLEASGCRFLWVVKGAVVDKDDGAELSELLGEGFLQRVSGRALVTKAWVEQGEVLKHPAIGMFVSHCGWDSLTEAFATGVPVLAWPRFADQRVNAGIVARCGAGVWVERWSWEGDEGVVKGEEIAEKVKSVMANEMLRRSSTMVREAAMTAVAGGGTSYRSLAELVARCCDGSASQ

Assay: In vitro functional identification of C-glycosyltransferases by HPLC, phloretin as glycosyl receptor
Assay type: biochemical
Details: 0.1 mM phloretin, 0.3 mM UDP glucose, crude enzyme, 37° C., 2 h, HPLC (FIG. 1A)
Protocol: The recombinant plasmid was transformed into competent cells of Escherichia coli BL21 (DE3), and cultured overnight at 37° C. in solid LB medium (kanamycin 50 μg/mL). Single colony was transferred to a 2 mL LB liquid medium (containing 50 μg/ml kanamycin) and incubated overnight. The bacterial fluid was transferred to a new 100 ml LB liquid medium with antibiotics and incubated at 37° C. and 250 r/min until OD600 reached 0.5-0.6. The culture was cooled down to 16° C. in a water bath. Then inducer IPTG was added at a final concentration of 0.1 mM. The mixture was cultured at 16° C. for low temperature induction and 180 r/min for 20 h. The BL21(DE3) recombinant strain carrying the pET28a empty plasmid was used as a blank control, and the culture operation was the same as above. The bacteria were harvested by centrifugation (6000 r/min, 5 min), re-suspended in 1 mL of lysis buffer Buffer A (20 mM Tris-HCl, pH 8.0; 100 mM NaCl), and DNase was added to a final concentration of 5 μg/mL, Mg^2+ to a final concentration of 2 mM; protease inhibitor PMSF to a final concentration of 1 mM; the bacteria were incubated on ice for 30 min and then sonicated; refrigerated centrifugation (10,000 rpm, 30 min, 4° C.), filtered through a 0.2 µm filter membrane to obtain the supernatant crude enzyme solution, and added 20% glycerol for cryopreservation (−20° C.).
The in vitro enzyme catalytic assay system is 100 μL. The reaction system includes: 0.1 mM glycosyl receptor (phloretin or 2-hydroxynaringenin), 0.3 mM UDP glucose, 25 μL supernatant crude enzyme solution, and Buffer A is used to make up the volume to 100 μL, and react at 37° C. for 2 h. After the reaction was completed, an equal volume of methanol was added to terminate the reaction, and HPLC was used for product analysis. HPLC detection conditions: chromatographic column: reverse phase C18 column [SilGreen ODS column (ø 4.6×250 mm)], detection wavelength 280 nm; mobile phase: acetonitrile (0.1% formic acid)-water (0.1% formic acid) mixture gradient elution, with increased ratio from 5:95 to 100:0 within 0 to 20 min, and the flow rate was 1 mL/min.

Molecule | 5′ C-glycosylation of 3′-glycosylated phloretin giving phloretin-3′,5′-C-diglucoside | conversion of substrate phloretin to C-glycosylated product (Nothofagin)
B1 | can catalyze the glycosylation of the 3′-glycosylated phloretin at the 5′ position | can convert the substrate phloretin to a product having a shorter retention time
B2 | – | can convert the substrate phloretin to a product having a shorter retention time
B3 | – | can convert the substrate phloretin to a product having a shorter retention time
